Measured values as given in patent US20190135934A1 (published 2019).

Molecular target: T1, CD20 protein on CD20 protein-positive lymphoma cell Raji (ATCC CCL-86) (UniProt P11836 1-297, limits assumed)
T1 construct: whole, on cells; The target is native CD20 on Raji cells; also called CD20 antigen
T1 sequence (looked up): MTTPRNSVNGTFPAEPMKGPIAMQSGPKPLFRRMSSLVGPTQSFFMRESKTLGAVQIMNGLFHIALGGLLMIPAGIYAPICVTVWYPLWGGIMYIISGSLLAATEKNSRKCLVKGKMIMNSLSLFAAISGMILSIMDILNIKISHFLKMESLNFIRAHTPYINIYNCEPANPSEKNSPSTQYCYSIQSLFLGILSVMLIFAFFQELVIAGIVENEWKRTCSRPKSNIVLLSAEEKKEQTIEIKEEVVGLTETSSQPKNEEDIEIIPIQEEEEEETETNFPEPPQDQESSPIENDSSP
Assay: flow cytometry, fluorescently labeled antibody on Raji cells
Method: Briefly, after diluted in equal concentration proportions, the purified fluorescently labeled antibody was incubated with the CD20 protein-positive lymphoma cell Raji (ATCC CCL-86) for 45 minutes on ice, and then washed twice and subjected to flow cytometry. The binding activity of the antibody was further evaluated based on the change in fluorescence intensity of the antibody after binding to the cells at different antibody concentrations.

| Binder | binding result |
| --- | --- |
| novel CD20 antibody H102YH (antibody, human IgG1, V domains shown) VH: QVQLQQPGAELVKPGASVKMSCKASGYTFTSYNMHWVKQTPGRGLEWIGAIYPGNGDTSYNQKFKGKATLTADKSSSTAYMQLSSLTSEDSAVYYCARSTYHGGDWYFNVWGAGTTVTVSA VL: QIVLSQSPAILSASPGEKVTMTCRASSSVSYIHWFQQKPGSSPKPWIYATSNLASGVPVRFSGSGSGTSYSLTISRVEAEDAATYYCQQWTSNPPTFGGGTKLEIKV | binds |
| novel CD20 antibody H102YN (antibody, human IgG1, V domains shown) VH: QVQLQQPGAELVKPGASVKMSCKASGYTFTSYNMHWVKQTPGRGLEWIGAIYPGNGDTSYNQKFKGKATLTADKSSSTAYMQLSSLTSEDSAVYYCARSTYNGGDWYFNVWGAGTTVTVSA VL: QIVLSQSPAILSASPGEKVTMTCRASSSVSYIHWFQQKPGSSPKPWIYATSNLASGVPVRFSGSGSGTSYSLTISRVEAEDAATYYCQQWTSNPPTFGGGTKLEIKV | binds |
| novel CD20 antibody H102YS (antibody, human IgG1, V domains shown) VH: QVQLQQPGAELVKPGASVKMSCKASGYTFTSYNMHWVKQTPGRGLEWIGAIYPGNGDTSYNQKFKGKATLTADKSSSTAYMQLSSLTSEDSAVYYCARSTYSGGDWYFNVWGAGTTVTVSA VL: QIVLSQSPAILSASPGEKVTMTCRASSSVSYIHWFQQKPGSSPKPWIYATSNLASGVPVRFSGSGSGTSYSLTISRVEAEDAATYYCQQWTSNPPTFGGGTKLEIKV | binds |
| novel CD20 antibody H102YM (antibody, human IgG1, V domains shown) VH: QVQLQQPGAELVKPGASVKMSCKASGYTFTSYNMHWVKQTPGRGLEWIGAIYPGNGDTSYNQKFKGKATLTADKSSSTAYMQLSSLTSEDSAVYYCARSTYMGGDWYFNVWGAGTTVTVSA VL: QIVLSQSPAILSASPGEKVTMTCRASSSVSYIHWFQQKPGSSPKPWIYATSNLASGVPVRFSGSGSGTSYSLTISRVEAEDAATYYCQQWTSNPPTFGGGTKLEIKV | binds |
| novel CD20 antibody H102YV (antibody, human IgG1, V domains shown) VH: QVQLQQPGAELVKPGASVKMSCKASGYTFTSYNMHWVKQTPGRGLEWIGAIYPGNGDTSYNQKFKGKATLTADKSSSTAYMQLSSLTSEDSAVYYCARSTYVGGDWYFNVWGAGTTVTVSA VL: QIVLSQSPAILSASPGEKVTMTCRASSSVSYIHWFQQKPGSSPKPWIYATSNLASGVPVRFSGSGSGTSYSLTISRVEAEDAATYYCQQWTSNPPTFGGGTKLEIKV | binds |
| novel CD20 antibody H102YL (antibody, human IgG1, V domains shown) VH: QVQLQQPGAELVKPGASVKMSCKASGYTFTSYNMHWVKQTPGRGLEWIGAIYPGNGDTSYNQKFKGKATLTADKSSSTAYMQLSSLTSEDSAVYYCARSTYLGGDWYFNVWGAGTTVTVSA VL: QIVLSQSPAILSASPGEKVTMTCRASSSVSYIHWFQQKPGSSPKPWIYATSNLASGVPVRFSGSGSGTSYSLTISRVEAEDAATYYCQQWTSNPPTFGGGTKLEIKV | binds |
| novel CD20 antibody H102YQ (antibody, human IgG1, V domains shown) VH: QVQLQQPGAELVKPGASVKMSCKASGYTFTSYNMHWVKQTPGRGLEWIGAIYPGNGDTSYNQKFKGKATLTADKSSSTAYMQLSSLTSEDSAVYYCARSTYQGGDWYFNVWGAGTTVTVSA VL: QIVLSQSPAILSASPGEKVTMTCRASSSVSYIHWFQQKPGSSPKPWIYATSNLASGVPVRFSGSGSGTSYSLTISRVEAEDAATYYCQQWTSNPPTFGGGTKLEIKV | binds |
| novel CD20 antibody H102YR (antibody, human IgG1, V domains shown) VH: QVQLQQPGAELVKPGASVKMSCKASGYTFTSYNMHWVKQTPGRGLEWIGAIYPGNGDTSYNQKFKGKATLTADKSSSTAYMQLSSLTSEDSAVYYCARSTYRGGDWYFNVWGAGTTVTVSA VL: QIVLSQSPAILSASPGEKVTMTCRASSSVSYIHWFQQKPGSSPKPWIYATSNLASGVPVRFSGSGSGTSYSLTISRVEAEDAATYYCQQWTSNPPTFGGGTKLEIKV | binds |
